Data on 11 molecules can be found in patent publication US20040091480A1 (Kyowa Kirin, published 2004).

Where a chain is given by its changes, count along the chain named.

For experiment [1], the target named is T1, C-terminus-biotin labeled compound 1 (an N-terminus peptide of FGF-8) (human, C-terminus biotin label).
T1 construct: also called FGF-8 peptide
T1 peptide: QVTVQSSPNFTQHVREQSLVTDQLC
Kind of experiment: BIAcore 2000, biotin FGF-8 peptide on SA chip, antibody in solution, RU compared; dissociation hardly observed. The protocol:
In order to examine the activity of various anti-FGF-8 CDR-grafted antibodies obtained in the item 5 of Example 5 to bind to FGF-8 in more detail, activities of various anti-FGF-8 CDR-grafted antibodies to bind to FGF-8 were measured and compared as follows by using BIAcore 2000 (manufactured by BIACORE). The CHO/DG44-derived anti-FGF-8 chimeric antibody KM3034 obtained in the item 3(1) of Example 3 was used as a positive control.
Hereinbelow, HBS-EP (manufactured by Pharmacia) was used as the buffer solution for dilution of samples and during the measurement. First, a sensor tip SA (manufactured by BIACORE) was set, and 5 μl of a C-terminus-biotin labeled compound 1 (an N-terminus peptide of FGF-8; SEQ ID NO:17) prepared to a solution of 0.05 μg/ml was added thereto at a flow rate of […]. Thereafter, the tip surface was washed by adding 5 μl of 10 mmol/l Glycine-HCl buffer (pH 1.5) continuously twice. Immobilized amount of the FGF-8 peptide was 35 RU.
To the FGF-8 peptide immobilized flow cell, 60 μl of each antibody solution was added at a flow rate of 20 μl/minute, and then the dissociation reaction was monitored for 3 minutes. After the dissociation reaction, the tip surface was regenerated by adding 20 μl of 10 mmol/l Glycine-HCl buffer (pH 1.5) continuously twice. This cycle was carried out for antibody solutions of various concentrations (50 to 1.85 μg/ml), and a sensorgram at each concentration was obtained. The sensorgram of each antibody was made into a sensorgram of specific reaction by subtracting a sensorgram obtained using a chimeric antibody KM871 for GD3 [Cancer Immunol. Immunother., 36, 373 (1993)] as a negative control.

Experiment [2] has as its target T2, human FGF-8 partial peptide (Sequence ID NO:1) cross-linked with thyroglobulin (human, cross-linked to thyroglobulin (THY) with glutaraldehyde).
T2 construct: Coated on the plate as a thyroglobulin conjugate; also called THY-FGF-8 peptide antigen; FGF-8 peptide
T2 peptide: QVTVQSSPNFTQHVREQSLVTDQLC
Kind of experiment: enzyme immunoassay, peptide-thyroglobulin conjugate coated on the plate. The protocol: A conjugate obtained by cross-linking the human FGF-8 partial peptide shown in Sequence ID NO:1 with thyroglobulin in the following manner was used as the antigen for the assay. That is, 1 mg of the peptide was dissolved in 0.1 M ammonium acetate buffer and the solution was adjusted to 1 ml by adding 5 mg of THY which has been dissolved in advance in the same buffer. To this, while stirring, was added dropwise 540 μl of 0.02 M glutaraldehyde, followed by 5 hours of stirring at room temperature to effect the reaction. After the reaction, the reaction solution was dialyzed overnight against PBS and used as the antigen. A conjugate obtained in the same manner by cross-linking the peptide shown in Sequence ID NO:2 with THY was used as a reference antigen. […] After washing with Tween-PBS, a peroxidase-labeled rabbit anti-mouse immunoglobulin (manufactured by DAKO) was distributed in 50 μl portions into wells of the plate to carry out 1 hour of reaction at room temperature, the plate was again washed with Tween-PBS, and then color development was effected using an ABTS substrate [2,2-azinobis(3-ethylbenzothiazole-6-sulfonic acid)ammonium] solution and absorbance at OD₄₁₅ was measured (NJ 2001, Japan Intermed).

Experiment [3] has as its target T3, BSA-compound 1 (Compound 1, human FGF-8 peptide, conjugated with bovine serum albumin) (human, conjugated to BSA through SMCC).
T3 peptide: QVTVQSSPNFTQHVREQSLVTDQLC
As to the kind of experiment: ELISA on BSA-compound 1. As for the experimental part: (§1) The conjugate prepared in the above was dispensed at 50 μl/well into a 96 well plate for ELISA (manufactured by Greiner) at a concentration of 0.5 to 1.0 μg/ml and allowed to stand for adsorption overnight at 4° C. After washing with PBS, 1% BSA-containing PBS (BSA-PBS) was added at 100 μl/well and allowed for blocking of remaining active groups to react at room temperature for 1 hour. After washing each well with 0.05% Tween-containing PBS (Tween-PBS), culture supernatants of transformants or purified antibodies were added at 50 μl/well and allowed to react at room temperature for 1 hour. After the reaction, each well was washed with Tween-PBS and then a peroxidase-labeled goat anti-human IgG (H & L) antibody solution (manufactured by American Qualex) diluted 3,000 to 6,000-folds with BSA-PBS was added as a secondary antibody solution at 50 μl/well and allowed to react at room temperature for 1 hour. After the reaction and subsequent washing with Tween-PBS, an ABTS substrate solution [a solution prepared by dissolving 0.55 g of 2,2′-azinobis(3-ethylbenzothiazoline-6-sulfonic acid) ammonium in 1 L of 0.1 M citrate buffer (pH 4.2) and adding 1 μl/ml hydrogen peroxide just before use] was added at 50 μl/well for color development, and the reaction was stopped by adding 5% SDS solution at 50 μl/well. Thereafter, absorbance at 415 nm (OD415) was measured.
The activity of various anti-FGF-8 CDR-grafted antibodies obtained in the item 4 of Example 4 to bind to FGF-8 was measured by the ELISA described in the item 2(6) of Example 3. The YB2/0-derived anti-FGF-8 chimeric antibody KM3334 obtained in the item 3(2) of Example 3 was used as a positive control.

For experiment [4], the target named is T3, BSA-compound 1 (Compound 1, human FGF-8 …). As to the kind of experiment: ELISA on BSA-compound 1, positive control. The protocol:
as §1, with “After the reaction and subsequent washing with Tween-PBS, an ABTS substrate solution [a solution prepared by dissolving 0.55 g of 2,2′-azinobis(3-ethylbenzothiazoline-6-sulfonic acid) ammonium in 1 L of 0.1 M citrate buffer (pH 4.2) and adding 1 μl/ml hydrogen peroxide just before use] was added at 50 μl/well for color development, and the reaction was stopped by adding 5% SDS solution at 50 μl/well.” left out
The activity of various anti-FGF-8 CDR-grafted antibodies obtained in the item 4 of Example 4 to bind to FGF-8 was measured by the ELISA described in the item 2(6) of Example 3. […]

The target in experiment [5] is T4, FGF-8 (manufactured by R&D) (UniProt P55075-3 23-215, limits assumed).
T4 sequence (looked up): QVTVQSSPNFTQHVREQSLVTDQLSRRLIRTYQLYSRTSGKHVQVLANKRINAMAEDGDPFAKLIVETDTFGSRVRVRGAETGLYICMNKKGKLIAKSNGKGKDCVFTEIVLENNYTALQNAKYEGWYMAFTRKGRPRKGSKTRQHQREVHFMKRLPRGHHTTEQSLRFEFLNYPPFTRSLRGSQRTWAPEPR
Kind of experiment: cell-based or functional assay.

The target in experiment [6] is T1, C-terminus-biotin labeled compound 1 …. Kind of experiment: BIAcore 2000, biotin FGF-8 peptide on SA chip, Example 6, RU compared; dissociation hardly observed.

B1: anti-FGF-8 CDR-grafted antibody HV0LV3-1/CHO (antibody, V domains shown)
VH: QVQLVQSGAEVKKPGASVKVSCKASGYTFTDYYLNWVRQAPGQGLEWMGEIDPGSDSIYYNENLEGRVTITADTSTSTAYMELSSLRSEDTAVYYCARYGYSRYDVRFVYWGQGTLVTVSS
VL: DVVMTQSPLSLPVTPGEPASISCRSSQSLVHSNGRTYLEWYLQKPGQSPQVLIYKVSNRISGVPDRFSGSGSGTDFTLKISRVEAEDVGVYFCFQGSHVPYTFGQGTKVEIK
notes: HV.0 + LV.3-1, human gamma1/kappa constant regions, made in CHO/DG44 cells; also called KM8036; FERM BP-8083
Regarding B1, the binding result in experiment [1] was “binds”.

B2: anti-FGF-8 monoclonal antibody KM 1334 (antibody, mouse IgG1, V domains shown)
VH: QVQLQQSGAEVARPGASVKLSCKASGYTFTDYYLNWVKQRSGQGLEWIGEIDPGSDSIYYNENLEGRATLTADKSSSTAYMQLNSLTSEDSAVYFCARYGYSRYDVRFVYWGQGTLVTVST
VL: B1 VL with V3L, S7T, T14S, P15L, E17D, P18Q, Q50K, V88L, Q105G, V109L
notes: Mouse IgG1, kappa L chain, purified from ascites; also called anti-FGF-8 mouse antibody KM1334; antibody of hybridoma FERM BP-5451
Take B2: the binding result in experiment [2] was “binds”.

B3: anti-FGF-8 CDR-grafted antibody HV0LV6 (YB2/0 cell-derived) (antibody, V domains shown)
VH: B1 VH
VL: B1 VL with T14S, P15L, Q50K
notes: also called KM8037; FERM BP-8084
For the molecule B3, in experiment [3], the binding result is on record as “binds”.

B4: anti-FGF-8 chimeric antibody KM3334 (antibody, V domains shown)
VH: B2 VH
VL: B1 VL with V3L, S7T, T14S, P15L, E17D, P18Q, Q50K, V88L, Q105G, V109L
On to B4, for which the binding result in experiment [4] is “binds”.

B5: anti-FGF-8 chimeric antibody KM3034 (antibody, V domains shown)
VH: B2 VH
VL: B1 VL with V3L, S7T, T14S, P15L, E17D, P18Q, Q50K, V88L, Q105G, V109L
notes: Human chimeric antibody, human gamma1 CH and kappa CL (vector pKANTEX93), made in CHO/DG44 cells; also called FERM BP-7836
For the molecule B5, the binding result in experiment [1] was “binds”.

B6: anti-FGF-8 CDR-grafted antibody HV6LV6 (YB2/0 cell-derived) (antibody, V domains shown)
VH: B1 VH with K12A, K13R, A40R, P41S, M48I, Y95F
VL: B1 VL with T14S, P15L, Q50K
In the case of B6, the binding result in experiment [3] is recorded as “binds”.

B7: anti-FGF-8 CDR-grafted antibody HV0LV3-3/CHO (antibody, V domains shown)
VH: B1 VH
VL: B1 VL with V2I, T14S, P15L, F92Y
Consider B7, for which the “FGF-8 neutralization activity, FGF-8-dependent growth of SC-3 cells” value in experiment [5] was ~0.5 fold of the activity of KM3034.

B8: anti-FGF-8 CDR-grafted antibody HV0LV6/CHO (antibody, V domains shown)
VH: B1 VH
VL: B1 VL with T14S, P15L, Q50K
notes: also called KM8034
Regarding B8, in experiment [1], the binding result is recorded as “binds”.

B9: anti-FGF-8 CDR-grafted antibody HV0LV0 (YB2/0 cell-derived) (antibody, V domains shown)
VH: B1 VH
VL: B1 VL with V2I, V51L, F92Y
Turning to B9, the binding result in experiment [3] is recorded as “binds”.

B10: anti-FGF-8 CDR-grafted antibody HV0LV0/CHO (antibody, V domains shown)
VH: B1 VH
VL: B1 VL with V2I, V51L, F92Y
On to B10, for which the binding result in experiment [1] is on record as “binds”.

B11: anti-FGF-8 CDR-grafted antibody HV0LV4-3/CHO (antibody, V domains shown)
VH: B1 VH
VL: B1 VL with V2I, T14S, P15L
notes: HV.0 + LV.4-3, human gamma1/kappa constant regions, made in CHO/DG44 cells; also called KM8035
As for B11, the “FGF-8 neutralization activity, FGF-8-dependent growth of SC-3 cells” value in experiment [5] is ~0.5 fold of the activity of KM3034. Besides, the binding result in experiment [6] is listed as “binds”.
